According to paper PMC2942077 (Biochemistry, 2010):
Residue numbers refer to the chain shown, from its start.

Assays:
Experiment in all cases: pull-down
[1] = biological target: T1, RP2 R118H disease-linked mutant, purified recombinant (human, UniProt O75695 1-350, R118H)
T1 sequence (looked up): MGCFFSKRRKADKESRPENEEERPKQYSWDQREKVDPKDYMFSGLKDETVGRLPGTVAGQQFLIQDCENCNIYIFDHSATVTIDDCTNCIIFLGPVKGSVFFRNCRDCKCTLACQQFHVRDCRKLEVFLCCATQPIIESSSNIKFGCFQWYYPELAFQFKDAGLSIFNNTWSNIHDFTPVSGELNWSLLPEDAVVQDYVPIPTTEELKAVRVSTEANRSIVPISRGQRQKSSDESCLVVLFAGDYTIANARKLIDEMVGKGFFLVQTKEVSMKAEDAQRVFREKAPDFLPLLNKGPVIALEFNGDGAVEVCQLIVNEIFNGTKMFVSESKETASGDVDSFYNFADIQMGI

[2] = biological target: T2, RP2 R282W disease-linked mutant, purified recombinant (human, UniProt O75695 1-350, R282W)
T2 sequence (looked up): T1 sequence (looked up) with H118R, R282W

[3] = biological target: T3, RP2 L188P disease-causing mutant, purified recombinant (human, UniProt O75695 1-350, L188P)
T3 sequence (looked up): T1 sequence (looked up) with H118R, L188P

[4] = biological target: T4, purified recombinant wild-type human RP2 (human, UniProt O75695 1-350)
T4 sequence (looked up): T1 sequence (looked up) with H118R

Measured: binding result

B1: GST fusion protein containing the N-terminal domain of NSF (domain or fragment, Chinese hamster, UniProt P18708 1-205, looked up)
chain: MAGRSMQAARCPTDELSLSNCAVVSEKDYQSGQHVIVRTSPNHKYIFTLRTHPSVVPGSVAFSLPQRKWAGLSIGQEIEVALYSFDKAKQCIGTMTIEIDFLQKKNIDSNPYDTDKMAAEFIQQFNNQAFSVGQQLVFSFNDKLFGLLVKDIEAMDPSILKGEPASGKRQKIEVGLVVGNSQVAFEKAENSSLNLIGKAKTKENR
binds: [1] | [2] | [3] | [4]
